According to patent publication US20090075374A1, “METHODS OF GENERATING EPITHELIAL LINEAGE CELLS FROM EMBRYOID BODIES AND PLURIPOTENT CELLS” (priority 2007, published 2009):

Columns and labels:
Type in all cases: cell-based, human
[1] = tested on: undifferentiated hESCs; experiment: Concentration-dependent effect of RA: toxicity; conditions: higher concentrations (e.g., 10 μM)
Procedure: In some experiments, K14-positive cells were generated from EBs.
To study the concentration-dependent effect of RA, EBs were differentiated with varying RA concentrations for nine days and subsequently cultured on gelatin in DSFM for nineteen days. […] To study the temporal-dependent effect of RA, RA was added to the cultures at various stages of differentiation (e.g., either during EB induction or during adherent culture in DSFM). […] When exposed to RA, plated cells from control EBs were enriched in neural precursor populations, as confirmed by qPCR analysis.

[2] = tested on: hESCs; experiment: Direct differentiation of hESCs to K14-positive cells; conditions: for K14+ yield: subsequent culture in keratinocyte medium, RA+/− cultures
Procedure: For immunohistochemistry, cells were fixed in 4% paraformaldehyde for 15 minutes at room temperature before blocking and permeabilizing with 5% milk in PBS with 0.4% Triton X-100.

[3] = tested on: hESCs; experiment: Direct differentiation of hESCs in N2 medium containing RA, BMP-4 or Noggin: epithelial and neuroectodermal transcripts; conditions: six days, BMP-4 inhibition in RA-treated samples
Procedure: For semi-quantitative and quantitative PCR, RNA was harvested from cells using a RNeasy® Mini kit (Qiagen; Valencia, Calif.). cDNA was then generated using Omniscript® RT (Qiagen), 1 μg RNA and oligo-dT primers. For semi-quantitative analysis, PCR was conducted using Platinum® Taq (Invitrogen) with 1 μl cDNA for 30 or 35 cycles. For quantitative analysis, PCR was conducted using Quantitect® SYBR Green qPCR kit (Qiagen) with 1 μl cDNA on an iCycler (BioRad; Hercules, Calif.). Relative expression levels were calculated using the ΔCT method, normalizing to GAPDH transcription. Primers (Table 1) were designed to span intron or bound exon borders, and PCR products were verified by melt curve analysis and/or 2% agarose gel electrophoresis.
BMP-4 synergized with RA in direct differentiation of hESCs to K14^+ cells. hESCs were directly differentiated in N2 medium containing RA, BMP-4 or Noggin (a BMP inhibitor). After differentiation for six days, RNA was analyzed for expression of epithelial and neuroectodermal transcripts. ΔNp63 was elevated in all RA-treated cell samples, regardless of status of BMP signaling.

Row | Molecule | toxicity to undifferentiated hESCs [1] | cells expressing K14 ([2]; after five weeks of differentiation, subculture in keratinocyte medium) [%] | K14+ yield [2] | effect on RA downregulation of neuroepithelial gene expression [3]
1 | CC1=C(/C=C/C(C)=C/C=C/C(C)=C/C(=O)O)C(C)(C)CCC1 [RA, tretinoin (all-trans RA), reference compound] | appeared toxic | 87 |  | 
2 | BMP-4: bone morphogenetic protein-4 (R&D Systems), growth factor of the TGF-β superfamily (protein, UniProt P12644 293-408, looked up) Bone morphogenetic protein 4: SPKHHSQRARKKNKNCRRHSLYVDFSDVGWNDWIVAPPGYQAFYCHGDCPFPLADHLNSTNHAIVQTLVNSVNSSIPKACCVPTELSAISMLYLDEYDKVVLKNYQEMVVEGCGCR |  |  | only slightly affected | 
3 | Noggin: a BMP inhibitor (R&D Systems) (protein, UniProt Q13253 28-232, looked up) Noggin: QHYLHIRPAPSDNLPLVDLIEHPDPIFDPKEKDLNETLLRSLLGGHYDPGFMATSPPEDRPGGGGGAAGGAEDLAELDQLLRQRPSGAMPSEIKGLEFSEGLAQGKKQRLSKKLRRKLQMWLWSQTFCPVLYAWNDLGSRFWPRYVKVGSCFSKRSCSVPEGMVCKPSKSVHLTVLRWRCQRRGGQRCGWIPIQYPIISECKCSC |  |  | decreased | mitigated this effect
